Measurements taken from PMC12177922, “In Vivo Ribosome-Amplified MetaBOlism, RAMBO, Effect Observed by Real Time Pulse Chase, RTPC, NMR Spectroscopy” (Biochemistry, 2025).

Substrate: Nc1ncnc2c1ncn2[C@@H]1O[C@H](COP(=O)(O)OP(=O)(O)OP(=O)(O)O)[C@@H](O)[C@H]1O
Test: direct 1H NMR kinetic assay (FBP peak)
Format: biochemical, Geobacillus stearothermophilus
Settings: 1 mM F6P, 1 nM enzyme, pH 7.5, 10 mM sodium phosphate, 50 mM KCl, 10 mM MgCl2, 10 °C, no ribosomes, fit with substrate inhibition

B1: PFK-A (Geobacillus stearothermophilus) (protein)
chain: MKRIGVLTSGGDSPGMNAAIRSVVRKAIYHGVEVYGVYHGYAGLIAGNIKKLEVGDVGDIIHRGGTILYTARCPEFKTEEGQKKGIEQLKKHGIEGLVVIGGDGSYQGAKKLTEHGFPCVGVPGTIDNDIPGTDFTIGFDTALNTVIDAIDKIRDTATSHERTYVIEVMGRHAGDIALWSGLAGGAETILIPEADYDMNDVIARLKRGHERGKKHSIIIVAEGVGSGVDFGRQIQEATGFETRVTVLGHVQRGGSPTAFDRVLASRLGARAVELLLEGKGGRCVGIQNNQLVDHDIAEALANKHTIDQRMYALSKELSI
notes: commercial lyophilized enzyme (Sigma-Aldrich)
Work on B1 yielded a Km of 84 ± 9.8 µM and a kcat of 36 ± 1.5 s⁻¹.
